Reference: patent publication US20140234868A1, “USE FOR GLYCOLIPOPROTEIN GINTONIN, ISOLATED AND IDENTIFIED FROM GINSENG, AS A NATURAL MEDICAL-PLANT DERIVED LIGAND” (KONKUK UNIVERSITY INDUSTRIAL COOPERATION CORP., priority 2011, published 2014)

What was measured:
[1] = test system: LPA receptor-null B103 cells (empty vector); test: Intracellular free Ca2+ (Fura-2AM) in B103 cells transfected with empty vector; format: cell-based, rat; settings: gintonin 1 μg/ml; empty vector B103 cells
Description: LPA family receptors are endogenous to cells of most organs. B103 rat neuroblastoma cells, known as LPA receptor-null cells (Valentine et al., Biochim Biophys Acta 1780. 597-605) were transiently transfected with a plasmid (vector) carrying one of genes coding for LPA1(edg-2), LPA2(edg-4), LPA3(edg-7), LPA4, LPA5 and LPA6 receptors or a plasmid carrying none of them (empty vector). Two or three days after transfection, the cells are suspended, and made permeable. Then, the permeable cells are treated with Fura-2AM, a fluorescent dye binding to calcium, and then with gintonin, followed by spectrofluorephotometry to examine whether gintonin induces an increase in intracellular free Ca^2+ level. […]
Briefly, Fura 2-AM loaded cells were diluted with an experimental medium to a final density of 2˜4×10^6 cells/mL, and transferred to polystyrene cuvettes (Elkay Ultra-VU). […] Emission was detected at 510 nm Excitation and emission slit widths were 5 nm Background calibration was performed as described by Jørgensen et al. […]

mice = test: Busulfan-caused diarrhea and mucositis in mice; format: in vivo, mouse; settings: for Diarrhea (cases / mice) / Mucositis (cases / mice): gintonin 100 mg/kg oral 3 days before, observed 10 days
Procedure: In this Example, an examination was made of the inhibitory activity of gintonin against chemotherapy-induced diarrhea and mucositis. For this, gintonin-treated mice were administered with busulfan, and observed for diarrhea and mucostitis.
Briefly, mice were orally administered at a dose of 100 mg/kg with gintonin 3 days before intraperitoneal injection with busulfan (40 mg/kg). For the control, physiological saline was used, instead of gintonin.

HUVECs = test: HUVEC proliferation, BrDU incorporation ELISA; format: cell-based, human; settings: gintonin 24 hrs
Procedure: In this Example, gintonin was examined for effect on cell growth. In this regard, HUVECs (human umbilical vein endothelial cells) were cultured with BrDU in the presence of gintonin, and analyzed for relative BrDU content by BrDU assay (Won et al., J Pharmacol Sci 108, 372-379, 2008; Chen et al., Cell Physiol Biochem 22, 307-314, 2008) using a BrDU cell proliferation ELISA kit (Roche, Germany).
Briefly, cells were seeded at a density of 3×10^3 cells/well into 96-well plates one day before treatment with gintonin. After 24 hrs of incubation, the cells were cultured for 6 hrs in a fresh M199 medium supplemented with […]. Again, the medium was changed to a fresh M199 medium supplemented with […], after which the cells were incubated with gintonin for 24 hrs. For an additional 24 hrs, the cells were incubated with a BrDU labeling reagent. After medium was removed, the cells were washed with 10% FBS-supplemented M199, fixed with a fixative, and quantitatively analyzed for relative intracellular BrDU content using an anti-BrDU-peroxidase antibody and a luminometer (Veritas, Turner Biosystems, USA).

[2] = busulfan 40 mg/kg i.p., gintonin 100 mg/kg oral
[3] = busulfan 40 mg/kg i.p., listed as Gintonin + Busulfan

B1: gintonin: ginseng-derived glycolipoprotein; structural protein of ginseng major latex-like protein (MLP151) and ribonuclease-like storage proteins; crude gintonin used in tests (protein)
chain 1: MGLTGKLICQTGIKSDGDVFHELFGTRPHHVPNITPANIQGCDLHEGEFGKVGSVVIWNYSIDGNAMIAKEEIVAIDEEDKSVTFKVVEGHLFEEFKSIVFSVHVDTKGEDNLVTWSIDYEKLNESVKDPTSYLDFLLSVTRDIEAHHLPK
chain 2: RSDYPWAMFALRLQWPAGFCEVNNACDTKSLLNTFTIHGLYPYNAKGTPALYCDGTAFDVNSVSDFLAEMHLAWPSHETNTEDIQFWEHEWKKHGRCSEALLKQTDYFRTALAFRKAFDIVGLLNQEGIYPNNDLYRPKMIKEAIKKHLNAVPEIDFTKNENSEYVLTDINVCVNQQATRFVDCPTDDATDDYRLKFVRLPSKMKFADPRTNSII
In the case of B1, the increase in intracellular calcium level [1] is reported as 22.7 ± 4.1 nM, the diarrhea morbidity rate (mice; [2]) is reported as 20% and the perianal mucositis morbidity (mice; [2]) is reported as 13.3%. For the same molecule, the “Diarrhea (cases / mice)” value (mice; busulfan 40 mg/kg i.p.) was 3, the “Mucositis (cases / mice)” value (mice; busulfan 40 mg/kg i.p.) was 2 and the “Diarrhea (cases / mice)” value (mice; [3]) was 3/15. The “Mucositis (cases / mice)” value (mice; [3]) was 2/15, the “inhibition of busulfan-caused perianal mucositis” value (mice; gintonin 100 mg/kg oral) was 33.4% and the “reduction of busulfan-caused diarrhea” value (mice; gintonin 100 mg/kg oral) was “more than 30%”. For the same molecule, the “incorporation of Br-DU into DNA” value (HUVECs) was “increase the incorporation of Br-DU into the DNA of HUVECs in a concentration-dependent manner”.
